# From the supplement of paper PMC9112550, “Optimization of the antimicrobial peptide Bac7 by deep mutational scanning” (BMC Biology, 2022)
# Tested on: Escherichia coli TOP10
# Assay: shrunken log2 fold change of peptide-encoding DNA abundance (4.5 h post-induction vs induction); higher = less antimicrobial activity (less host growth inhibition)
# Conditions: time post-induction: 4.5 h; library: site-saturation at positions 5, 18, 19, 20
# 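Note: peptides expressed intracellularly from a pBAD plasmid library in pooled LB shake-flask culture, induced with 0.3% L-arabinose, DNA abundance read by NGS, three biological replicates, DESeq2 with apeglm shrinkage.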
row,Sequence,shrunken log2 fold change
1,RRIRYRPPRLPRPRPRPEETPRP,-0.119
2,RRIRGRPPRLPRPRPRPNDGPRP,0.0995
3,RRIRSRPPRLPRPRPRPCCSPRP,-0.00502
4,RRIRARPPRLPRPRPRPHALPRP,0.112
5,RRIRDRPPRLPRPRPRPRQTPRP,0.612
6,RRIRDRPPRLPRPRPRPMKQPRP,-0.076
7,RRIRRRPPRLPRPRPRPFAQPRP,0.199
8,RRIRARPPRLPRPRPRPFESPRP,0.0991
9,RRIRCRPPRLPRPRPRPRYPPRP,-0.00708
10,RRIRFRPPRLPRPRPRPRSQPRP,-0.105
11,RRIRRRPPRLPRPRPRPHGWPRP,0.784
12,RRIRSRPPRLPRPRPRPIKRPRP,0.0449
13,RRIRERPPRLPRPRPRPCVGPRP,-0.278
14,RRIRKRPPRLPRPRPRPRQGPRP,0.708
15,RRIRMRPPRLPRPRPRPQKWPRP,-0.00664
16,RRIRVRPPRLPRPRPRPRQFPRP,0.238
17,RRIRTRPPRLPRPRPRPGVGPRP,0.546
18,RRIRKRPPRLPRPRPRPPGHPRP,0.377
19,RRIRVRPPRLPRPRPRPKNMPRP,-0.866
20,RRIRLRPPRLPRPRPRPRAKPRP,0.139
21,RRIRQRPPRLPRPRPRPQSKPRP,-0.574
22,RRIRARPPRLPRPRPRPIEQPRP,0.124

row,Sequence,shrunken log2 fold change
1,RRIRRRPPRLPRPRPRPHTGPRP,-0.105
2,RRIRPRPPRLPRPRPRPCQLPRP,-0.659
3,RRIRCRPPRLPRPRPRPGPGPRP,0.709
4,RRIRPRPPRLPRPRPRPEPFPRP,0.454
5,RRIRPRPPRLPRPRPRPQEPPRP,0.265
6,RRIRPRPPRLPRPRPRPEERPRP,-0.0232
7,RRIRMRPPRLPRPRPRPNLKPRP,0.158
8,RRIRWRPPRLPRPRPRPEAIPRP,0.25
9,RRIRKRPPRLPRPRPRPSIKPRP,-0.004
10,RRIRTRPPRLPRPRPRPVLVPRP,-0.106
11,RRIRNRPPRLPRPRPRPTENPRP,0.0685
12,RRIRRRPPRLPRPRPRPHDHPRP,3.24
13,RRIRTRPPRLPRPRPRPTSRPRP,0.141
14,RRIRGRPPRLPRPRPRPSLSPRP,0.576
15,RRIRSRPPRLPRPRPRPLQWPRP,-0.0911
16,RRIRMRPPRLPRPRPRPMYHPRP,-0.0178
17,RRIRIRPPRLPRPRPRPMHSPRP,-0.0586
18,RRIRRRPPRLPRPRPRPPIDPRP,0.144
19,RRIRLRPPRLPRPRPRPVWWPRP,0.88
20,RRIRSRPPRLPRPRPRPRHSPRP,-0.356
21,RRIRNRPPRLPRPRPRPVTKPRP,0.0334
22,RRIRMRPPRLPRPRPRPMCRPRP,0.0713

row,Sequence,shrunken log2 fold change
1,RRIRWRPPRLPRPRPRPQQPPRP,0.383
2,RRIRERPPRLPRPRPRPSHFPRP,0.000406
3,RRIRPRPPRLPRPRPRPFCEPRP,0.0972
4,RRIRIRPPRLPRPRPRPDGAPRP,-0.237
5,RRIRDRPPRLPRPRPRPYTIPRP,-0.0747
6,RRIRARPPRLPRPRPRPMQVPRP,0.277
7,RRIRIRPPRLPRPRPRPGKPPRP,0.217
8,RRIRYRPPRLPRPRPRPMKRPRP,-0.0321
9,RRIRFRPPRLPRPRPRPVGGPRP,0.405
10,RRIRDRPPRLPRPRPRPYNTPRP,-0.476
11,RRIRYRPPRLPRPRPRPGGIPRP,-0.0836
12,RRIRGRPPRLPRPRPRPQHRPRP,0.212
13,RRIRMRPPRLPRPRPRPVSGPRP,0.594
14,RRIRERPPRLPRPRPRPRAPPRP,0.524
15,RRIRCRPPRLPRPRPRPEKQPRP,-0.0123
16,RRIRMRPPRLPRPRPRPRCPPRP,0.757
17,RRIRYRPPRLPRPRPRPLEGPRP,0.0645
18,RRIRQRPPRLPRPRPRPYFYPRP,-0.652
19,RRIRVRPPRLPRPRPRPTCIPRP,-0.372
20,RRIRCRPPRLPRPRPRPFESPRP,0.0262
21,RRIRKRPPRLPRPRPRPFTMPRP,-0.23
22,RRIRERPPRLPRPRPRPGLCPRP,0.00687

row,Sequence,shrunken log2 fold change
1,RRIRSRPPRLPRPRPRPDICPRP,-0.0721
2,RRIRVRPPRLPRPRPRPVPRPRP,-0.00795
3,RRIRERPPRLPRPRPRPTDYPRP,-0.349
4,RRIRQRPPRLPRPRPRPATDPRP,-0.0316
5,RRIRERPPRLPRPRPRPNDWPRP,-0.133
6,RRIRCRPPRLPRPRPRPNDQPRP,0.0359
7,RRIRTRPPRLPRPRPRPYIDPRP,-0.132
8,RRIRIRPPRLPRPRPRPDDHPRP,0.07
9,RRIRTRPPRLPRPRPRPKPIPRP,0.0226
10,RRIRDRPPRLPRPRPRPEGLPRP,0.0425
11,RRIRHRPPRLPRPRPRPNHMPRP,0.124
12,RRIRCRPPRLPRPRPRPKHQPRP,-0.0465
13,RRIRKRPPRLPRPRPRPYAIPRP,0.0303
14,RRIRERPPRLPRPRPRPLVEPRP,-0.229
15,RRIRVRPPRLPRPRPRPFGNPRP,0.0432
16,RRIRPRPPRLPRPRPRPPVFPRP,0.308
17,RRIRHRPPRLPRPRPRPTCMPRP,-0.184
18,RRIRPRPPRLPRPRPRPKNYPRP,-0.428
19,RRIRERPPRLPRPRPRPMFVPRP,-0.285
20,RRIRTRPPRLPRPRPRPVHWPRP,0.842
21,RRIRCRPPRLPRPRPRPMIGPRP,-0.0953
22,RRIRRRPPRLPRPRPRPWNGPRP,-0.346

row,Sequence,shrunken log2 fold change
1,RRIRFRPPRLPRPRPRPKVKPRP,0.0668
2,RRIRTRPPRLPRPRPRPTVFPRP,-0.14
3,RRIRDRPPRLPRPRPRPEGYPRP,0.585
4,RRIRIRPPRLPRPRPRPEYQPRP,0.00783
5,RRIRDRPPRLPRPRPRPNAAPRP,0.0798
6,RRIRMRPPRLPRPRPRPPPVPRP,1.65
7,RRIRLRPPRLPRPRPRPPYHPRP,-0.317
8,RRIRERPPRLPRPRPRPSTNPRP,-0.317
9,RRIRLRPPRLPRPRPRPQMVPRP,-0.108
10,RRIRIRPPRLPRPRPRPRKTPRP,0.13
11,RRIRMRPPRLPRPRPRPQWLPRP,0.351
12,RRIRIRPPRLPRPRPRPRKQPRP,-0.00244
13,RRIRKRPPRLPRPRPRPVHVPRP,0.0513
14,RRIRHRPPRLPRPRPRPKPQPRP,0.269
15,RRIRHRPPRLPRPRPRPQQIPRP,-0.0193
16,RRIRIRPPRLPRPRPRPDIRPRP,-0.00601
17,RRIRSRPPRLPRPRPRPDFVPRP,-0.106
18,RRIRDRPPRLPRPRPRPARNPRP,0.316
19,RRIRYRPPRLPRPRPRPKRLPRP,-0.102
20,RRIRCRPPRLPRPRPRPCSMPRP,-0.0191
21,RRIRMRPPRLPRPRPRPTPYPRP,0.2
